Measurements reported in patent US20180194839A1.

Key:
BSA [1] = biological target: BSA (UniProt P02769); assay: ELISA, BSA wells, control Ab 1 µg/ml (control antibody not identified)
BSA [2] = biological target: BSA (UniProt P02769); assay: ELISA, BSA wells, control Ab 5 µg/ml (control antibody not identified)
[3] = biological target: recombinant human IL-17A (SEQ ID NO: 76) (human) (UniProt Q16552); assay: cell-based or functional assay
[4] = biological target: recombinant human IL-17A/F heterodimer (human) (UniProt Q16552); assay: cell-based or functional assay
Sequence of recombinant human IL-17A/F heterodimer (human) (Q16552 24-155 limits assumed, chain 1 of 2): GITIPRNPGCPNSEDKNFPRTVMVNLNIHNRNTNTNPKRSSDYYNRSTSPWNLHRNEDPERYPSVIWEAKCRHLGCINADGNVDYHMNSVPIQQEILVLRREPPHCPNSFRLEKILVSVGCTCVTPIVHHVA
Sequence of recombinant human IL-17A/F heterodimer (human) (Q96PD4 31-163 limits assumed, chain 2 of 2, further chain): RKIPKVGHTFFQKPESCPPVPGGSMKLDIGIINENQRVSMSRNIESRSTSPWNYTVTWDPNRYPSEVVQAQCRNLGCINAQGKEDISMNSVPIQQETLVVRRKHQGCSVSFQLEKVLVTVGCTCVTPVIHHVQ

[5] = biological target: recombinant human IL-17F (SEQ ID NO: 77) (human) (UniProt Q96PD4); assay: cell-based or functional assay
Sequence of recombinant human IL-17F (SEQ ID NO: 77) (human) (Q96PD4 other isoform, or with tags, fused parts or gaps limits assumed): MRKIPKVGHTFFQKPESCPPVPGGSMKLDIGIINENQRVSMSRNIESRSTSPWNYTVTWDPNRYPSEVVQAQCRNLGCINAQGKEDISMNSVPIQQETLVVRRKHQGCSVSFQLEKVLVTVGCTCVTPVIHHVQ

[6] = biological target: recombinant mouse IL-17A (SEQ ID NO: 83) (mouse) (UniProt Q62386); assay: cell-based or functional assay
Sequence of recombinant mouse IL-17A (SEQ ID NO: 83) (mouse) (Q62386 other isoform, or with tags, fused parts or gaps limits assumed): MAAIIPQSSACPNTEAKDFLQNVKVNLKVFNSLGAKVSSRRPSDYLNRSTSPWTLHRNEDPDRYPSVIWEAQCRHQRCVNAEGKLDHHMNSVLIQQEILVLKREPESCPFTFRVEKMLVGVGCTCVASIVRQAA

[7] = biological target: recombinant mouse IL-17A/F (R&D Systems Cat#5390-IL) (mouse) (UniProt Q62386); assay: cell-based or functional assay
Sequence of recombinant mouse IL-17A/F (R&D Systems Cat#5390-IL) (mouse) (Q62386 26-158 limits assumed, chain 1 of 2): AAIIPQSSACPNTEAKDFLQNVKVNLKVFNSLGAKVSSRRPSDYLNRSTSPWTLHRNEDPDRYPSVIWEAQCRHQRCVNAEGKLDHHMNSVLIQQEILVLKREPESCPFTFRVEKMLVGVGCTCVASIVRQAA
Sequence of recombinant mouse IL-17A/F (R&D Systems Cat#5390-IL) (mouse) (Q7TNI7 29-161 limits assumed, chain 2 of 2, further chain): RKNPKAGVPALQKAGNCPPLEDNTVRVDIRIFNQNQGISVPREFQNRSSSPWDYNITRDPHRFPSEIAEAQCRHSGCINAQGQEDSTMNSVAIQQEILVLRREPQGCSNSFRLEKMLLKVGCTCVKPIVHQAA

[8] = biological target: recombinant mouse IL-17F (SEQ ID NO: 84) (mouse) (UniProt Q7TNI7); assay: cell-based or functional assay
Sequence of recombinant mouse IL-17F (SEQ ID NO: 84) (mouse) (Q7TNI7 other isoform, or with tags, fused parts or gaps limits assumed): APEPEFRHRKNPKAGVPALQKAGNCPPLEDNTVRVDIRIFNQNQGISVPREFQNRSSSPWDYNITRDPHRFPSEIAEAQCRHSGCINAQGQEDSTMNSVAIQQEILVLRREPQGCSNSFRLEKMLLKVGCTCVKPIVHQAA

[9] = biological target: recombinant rat IL-17A (SEQ ID NO: 85) (rat) (UniProt Q61453); assay: cell-based or functional assay
Sequence of recombinant rat IL-17A (SEQ ID NO: 85) (rat) (Q61453 other isoform, or with tags, fused parts or gaps limits assumed): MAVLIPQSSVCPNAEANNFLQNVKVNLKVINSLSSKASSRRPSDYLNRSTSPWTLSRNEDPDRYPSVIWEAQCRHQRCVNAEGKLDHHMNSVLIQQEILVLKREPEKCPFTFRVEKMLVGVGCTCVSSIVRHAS

Sequence of recombinant human IL-17A (SEQ ID NO: 76) (human) (Q16552 other isoform, or with tags, fused parts or gaps limits assumed): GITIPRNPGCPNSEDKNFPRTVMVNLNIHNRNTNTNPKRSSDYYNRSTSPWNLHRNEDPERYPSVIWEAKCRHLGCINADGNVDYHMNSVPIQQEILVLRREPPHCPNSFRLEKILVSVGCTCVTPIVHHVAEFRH
Sequence of BSA (P02769 25-607 limits assumed): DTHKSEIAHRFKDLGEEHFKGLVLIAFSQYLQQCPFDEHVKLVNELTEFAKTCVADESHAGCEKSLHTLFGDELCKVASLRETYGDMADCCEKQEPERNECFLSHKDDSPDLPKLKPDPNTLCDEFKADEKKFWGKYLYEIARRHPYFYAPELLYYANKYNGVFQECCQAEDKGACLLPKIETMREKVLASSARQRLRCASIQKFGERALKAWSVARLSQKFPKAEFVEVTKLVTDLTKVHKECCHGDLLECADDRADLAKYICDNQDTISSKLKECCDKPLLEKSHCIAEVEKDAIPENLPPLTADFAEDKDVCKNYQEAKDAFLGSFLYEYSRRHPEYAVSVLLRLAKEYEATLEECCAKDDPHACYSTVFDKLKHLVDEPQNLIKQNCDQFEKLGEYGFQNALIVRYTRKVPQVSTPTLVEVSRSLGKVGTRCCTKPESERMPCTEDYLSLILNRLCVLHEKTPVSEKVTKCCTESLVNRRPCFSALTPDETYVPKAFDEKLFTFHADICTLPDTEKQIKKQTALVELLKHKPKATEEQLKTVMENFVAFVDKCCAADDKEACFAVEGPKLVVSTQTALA

Row | O.D. (BSA [1]) [O.D.] | O.D. (BSA [2]) [O.D.] | IC50, hu-GRO-alpha secretion by BJ cells; stimulus IL-17A (30 pM) + TNF-α (6 pM) [3] [µM] | IC50, hu-GRO-alpha secretion by BJ cells; stimulus IL-17A (1 nM) [3] [nM] | IC50, huIL-6 secretion by BJ cells; stimulus rhuIL-17A (30 pM) + rhuTNF-α (6 pM) [3] [µM] | IC50, huIL-6 secretion by BJ cells; stimulus rhuIL-17A (1 nM) [3] [nM] | IC50, hu-GRO-alpha secretion by BJ cells; stimulus IL-17A/F (300 pM) + TNF-α (6 pM) [4] [µM] | IC50, hu-GRO-alpha secretion by BJ cells; stimulus IL-17A/F (3 nM) [4] [nM] | IC50, huIL-6 secretion by BJ cells; stimulus rhuIL-17A/F (300 pM) + rhuTNF-α (6 pM) [4] [µM] | IC50, huIL-6 secretion by BJ cells; stimulus rhuIL-17A/F (3 nM) [4] [nM] | IC50, hu-GRO-alpha secretion by BJ cells; stimulus IL-17F (10 nM) + TNF-α (6 pM) [5] [µM] | IC50, hu-GRO-alpha secretion by BJ cells; stimulus IL-17F (30 nM) [5] [nM] | IC50, huIL-6 secretion by BJ cells; stimulus rhuIL-17F (10 nM) + rhuTNF-α (6 pM) [5] [µM] | IC50, huIL-6 secretion by BJ cells; stimulus rhuIL-17F (30 nM) [5] [nM] | IC50, mouse KC secretion by CMT-93 cells; stimulus mIL-17A (1 nM) [6] [nM] | IC50, mouse KC secretion by CMT-93 cells; stimulus mIL-17A/F (3 nM) [7] [nM] | IC50, mouse KC secretion by CMT-93 cells; stimulus mIL-17F (30 nM) [8] [nM] | IC50, mouse KC secretion by CMT-93 cells; stimulus rIL-17A (1 nM) [9] [nM] | Substance
1 | 0.149 | 0.01 | – | – | – | – | – | – | – | – | – | – | – | – | – | – | – | – | Control antibody (not identified for this antigen)
2 | – | – | > 3 | > 100 | > 3 | > 100 | > 3 | > 100 | > 3 | > 100 | > 3 | > 1000 | > 3 | > 1000 | > 3000 | > 3000 | > 3000 | > 3000 | Simulect® (antibody)
